Among the data in patent publication US20220333113 are Kd values, retold here.

Assay in all cases: filter
Common to all, as to conditions: J = PPdU at every J; SB18T0.01 + 1 mM DTT, 37 C

In series [1] the target is T1, RIG-I K888A (Homo sapiens) (UniProt O95786).
T1 sequence: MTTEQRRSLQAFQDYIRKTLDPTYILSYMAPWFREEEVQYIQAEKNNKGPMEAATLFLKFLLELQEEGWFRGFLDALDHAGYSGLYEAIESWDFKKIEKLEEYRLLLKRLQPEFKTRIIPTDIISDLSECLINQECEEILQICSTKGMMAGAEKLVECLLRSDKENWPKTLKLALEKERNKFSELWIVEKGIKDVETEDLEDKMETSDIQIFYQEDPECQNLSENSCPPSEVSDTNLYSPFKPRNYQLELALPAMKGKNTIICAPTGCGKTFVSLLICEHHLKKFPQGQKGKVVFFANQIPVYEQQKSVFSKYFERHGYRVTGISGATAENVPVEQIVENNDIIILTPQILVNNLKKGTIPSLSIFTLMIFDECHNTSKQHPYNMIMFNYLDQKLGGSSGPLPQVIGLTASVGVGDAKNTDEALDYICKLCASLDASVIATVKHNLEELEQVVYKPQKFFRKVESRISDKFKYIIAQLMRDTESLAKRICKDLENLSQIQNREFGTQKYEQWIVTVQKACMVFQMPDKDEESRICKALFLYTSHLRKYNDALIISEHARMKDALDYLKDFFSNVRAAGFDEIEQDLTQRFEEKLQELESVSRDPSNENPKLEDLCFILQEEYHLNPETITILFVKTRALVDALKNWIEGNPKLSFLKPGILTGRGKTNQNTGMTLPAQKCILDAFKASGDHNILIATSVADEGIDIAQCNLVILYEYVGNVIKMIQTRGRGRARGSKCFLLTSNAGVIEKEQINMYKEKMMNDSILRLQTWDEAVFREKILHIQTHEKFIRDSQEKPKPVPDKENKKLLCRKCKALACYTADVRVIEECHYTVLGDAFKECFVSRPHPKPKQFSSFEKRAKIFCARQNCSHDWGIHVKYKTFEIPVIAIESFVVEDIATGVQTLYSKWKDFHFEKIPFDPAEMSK

In series [2] the target is T2, RIG-I K861A (Homo sapiens) (UniProt O95786).
T2 sequence: T1 sequence with K861A, A888K

Series [3] concerns the target T3, RIG-I D872A (Homo sapiens) (UniProt O95786).
T3 sequence: T1 sequence with D872A, A888K

Numbering of substitutions follows the chain as printed.

For “ATCTCTGTGTCATGTGTTTTAATGTCAGTTTAATGATGAGG [14832-55_8]”, the Kd in series [1] is 0.53 nM; in series [2], 0.89 nM; in series [3] it was 0.61 nM.
